Data as given in PMC8390549.

Target: N-terminal DYKDDDK-tagged mouse Tim-3 (T-cell immunoglobulin mucin domain-3) with the VN-173 portion of the Venus fluorophore at the C terminus (Tim-3-VN) (UniProt Q8VIM0)
Test: bimolecular fluorescence complementation (BiFC)
Details: HeLa CD4+ cells, fixed 24 h after transfection; BiFC intensity normalized to Nef expression (HA staining); 3 independent repeats, 30 cells total; parent: est. 1.1; read off a plot

UniProt Q8VIM0, sequence (Q8VIM0 20-281): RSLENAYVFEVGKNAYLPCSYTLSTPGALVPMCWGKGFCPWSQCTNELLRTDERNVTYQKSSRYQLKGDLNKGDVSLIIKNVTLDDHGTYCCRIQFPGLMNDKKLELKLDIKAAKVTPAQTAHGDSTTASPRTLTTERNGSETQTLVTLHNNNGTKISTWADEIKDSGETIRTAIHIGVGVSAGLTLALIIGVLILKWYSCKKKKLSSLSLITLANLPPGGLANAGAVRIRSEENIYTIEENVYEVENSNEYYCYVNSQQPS

HIV-1 NL4-3 Nef fused to a C-terminal HA tag and the VC-155 portion of the Venus fluorophore (Nef-HA-VC) L164A; L165A
response: 0.42 BiFC/Nef IF
